# B1: G841 deletion mutant: bovine eNOS small insertion mutant with G841 deleted (protein, UniProt P29473 2-1205, looked up, variant G841*)
# Nitric oxide synthase 3: GNLKSVGQEPGPPCGLGLGLGLGLCGKQGPASPAPEPSRAPAPATPHAPDHSPAPNSPTLTRPPEGPKFPRVKNWELGSITYDTLCAQSQQDGPCTPRCCLGSLVLPRKLQTRPSPGPPPAEQLLSQARDFINQYYSSIKRSGSQAHEERLQEVEAEVASTGTYHLRESELVFGAKQAWRNAPRCVGRIQWGKLQVFDARDCSSAQEMFTYICNHIKYATNRGNLRSAITVFPQRAPGRGDFRIWNSQLVRYAGYRQQDGSVRGDPANVEITELCIQHGWTPGNGRFDVLPLLLQAPDEAPELFVLPPELVLEVPLEHPTLEWFAALGLRWYALPAVSNMLLEIGGLEFSAAPFSGWYMSTEIGTRNLCDPHRYNILEDVAVCMDLDTRTTSSLWKDKAAVEINLAVLHSFQLAKVTIVDHHAATVSFMKHLDNEQKARGGCPADWAWIVPPISGSLTPVFHQEMVNYILSPAFRYQPDPWKGSATKGAGITRKKTFKEVANAVKISASLMGTLMAKRVKATILYASETGRAQSYAQQLGRLFRKAFDPRVLCMDEYDVVSLEHEALVLVVTSTFGNGDPPENGESFAAALMEMSGPYNSSPRPEQHKSYKIRFNSVSCSDPLVSSWRRKRKESSNTDSAGALGTLRFCVFGLGSRAYPHFCAFARAVDTRLEELGGERLLQLGQGDELCGQEEAFRGWAKAAFQASCETFCVGEEAKAAAQDIFSPKRSWKRQRYRLSTQAEGLQLLPGLIHVHRRKMFQATVLSVENLQSSKSTRATILVRLDTAGQEGLQYQPGDHIGICPPNRPGLVEALLSRVEDPPPPTESVAVEQLEKGSPGPPPSWVRDPRLPPCTLRQALTFFLDITSPPSPRLLRLLSTLAEEPSEQQELETLSQDPRRYEEWKWFRCPTLLEVLEQFPSVALPAPLLLTQLPLLQPRYYSVSSAPNAHPGEVHLTVAVLAYRTQDGLGPLHYGVCSTWLSQLKTGDPVPCFIRGAPSFRLPPDPYVPCILVGPGTGIAPFRGFWQERLHDIESKGLQPAPMTLVFGCRCSQLDHLYRDEVQDAQERGVFGRVLTAFSREPDSPKTYVQDILRTELAAEVHRVLCLERGHMFVCGDVTMATSVLQTVQRILATEGDMELDEAGDVIGVLRDQQRYHEDIFGLTLRTQEVTSRIRTQSFSLQERHLRGAVPWAFDPPGPDTPGP
# Target: T1, eNOS (Bos taurus, UniProt P29473, DEL841-841)
# T1 construct: made in house; host or cells: E. coli BL21 (pCWori+)
# Experiment: NO synthase activity per heme of eNOS mutants
# Assay type: biochemical, bovine
# Conditions: fully activated state (Ca+2/CaM)
# Experimental: Expression and purification of wild type and mutant bovine eNOS and rat nNOS. Expression and purification of bovine eNOS and rat nNOS were performed using procedures similar to those previously described (Martasek, P.,et al., (1996) Biochem Biophys Res Commun. 219(2); 359-65). Transformed cells were broken with a French press, and after centrifugation to remove cell debris the supernatant was loaded on a 2′5′ADP affinity column, washed, and eluted with 2′AMP as described (id). […] Enzyme sample concentrations were determined on the basis of heme concentration, except in heme free preparations, where the flavin concentration was measured. UV-visible absorbance spectra were recorded on an Aminco DW-2000 spectrophotometer.
# Nitric Oxide production was assayed using the Griess assay as adapted for microtiter plates (Gross, S. S. (1996) Methods Enzymol. 268:159-68); calcium dependence was measured using EDTA as a Ca+2 buffer system. […] NADPH-dependent cytochrome c reduction was measured spectrophotometrically as described by McMillan et al (McMillan, K., et al., (1992) Proc Nat. Acad. Sci. U.S.A. 89, 11141-11145), adapted to 96-well plate microtiter plates. […] Cytochrome c reduction was monitored at 550 nm (ε=2.1×104/M). […] Assays were performed on a SpectraMAX plate reader (Molecular Devices).
molecule,measurement,value
B1,activity per heme in the fully activated state,85 % of wild type
